# From paper PMC517823, “Mechanism of Association and Reciprocal Activation of Two GTPases” (PLoS Biology, 2004)
# T1: Ffh (UniProt P0AGD7 1-453)
# T1 construct: Ffh, the GTPase of the bacterial signal recognition particle; The methods of the fluorescence experiment name 'SRP' (2 uM), not Ffh alone; also called SRP GTPase; wild-type Ffh
# T1 sequence (looked up): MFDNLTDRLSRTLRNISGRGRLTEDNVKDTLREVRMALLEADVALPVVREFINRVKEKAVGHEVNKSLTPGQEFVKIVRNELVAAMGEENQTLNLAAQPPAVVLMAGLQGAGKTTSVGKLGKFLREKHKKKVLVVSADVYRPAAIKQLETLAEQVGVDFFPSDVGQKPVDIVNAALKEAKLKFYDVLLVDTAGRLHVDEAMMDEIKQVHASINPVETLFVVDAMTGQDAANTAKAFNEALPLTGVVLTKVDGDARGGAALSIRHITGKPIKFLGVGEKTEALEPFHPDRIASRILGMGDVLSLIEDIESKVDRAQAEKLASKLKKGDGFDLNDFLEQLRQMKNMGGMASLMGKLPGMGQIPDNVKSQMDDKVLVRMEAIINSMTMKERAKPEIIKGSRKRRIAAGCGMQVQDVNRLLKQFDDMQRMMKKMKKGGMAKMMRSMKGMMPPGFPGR
# Key:
# Ffh [1] = target: T1, Ffh; test: other fluorescence titration; tryptophan fluorescence of FtsY, time course at 335 nm; 1 uM mutant or wild-type FtsY, 2 uM SRP, 100 uM GppNHp, complex formation started by addition of Mg2+; conditions: both partners purified
# Ffh [2] = target: T1, Ffh; test: GTPase inhibition (competition) assay; mutant FtsY varied as inhibitor of the GTPase reaction of Ffh with subsaturating wild-type FtsY; under these conditions Ki equals Kd of the Ffh-FtsY(mt) complex; fit to equation 3; conditions: both partners purified
Binder,koff (Ffh [1]) [s⁻¹],kon (Ffh [1]) [M⁻¹ s⁻¹],Ki (Ffh [2]) [nM]
"wild-type FtsY(47-497) (domain or fragment, Escherichia coli, UniProt P10121 47-497, looked up, FtsY, SRP receptor, Escherichia coli, residues 47-497; also called SRP receptor; SR; source: expressed and purified as in Powers and Walter 1997; Peluso et al. 2001) ASEQAVEEQPQAHTEAEAETFAADVVEVTEQVAESEKAQPEAEVVAQPEPVVEETPEPVAIEREELPLPEDVNAEAVSPEEWQAEAETVEIVEAAEEEAAKEEITDEELETALAAEAAEEAVMVVPPAEEEQPVEEIAQEQEKPTKEGFFARLKRSLLKTKENLGSGFISLFRGKKIDDDLFEELEEQLLIADVGVETTRKIITNLTEGASRKQLRDAEALYGLLKEEMGEILAKVDEPLNVEGKAPFVILMVGVNGVGKTTTIGKLARQFEQQGKSVMLAAGDTFRAAAVEQLQVWGQRNNIPVIAQHTGADSASVIFDAIQAAKARNIDVLIADTAGRLQNKSHLMEELKKIVRVMKKLDVEAPHEVMLTIDASTGQNAVSQAKLFHEAVGLTGITLTKLDGTAKGGVIFSVADQFGIPIRYIGVGERIEDLRPFKADDFIEALFARED",0.0036,63600,
"FtsY A335(140)W (domain or fragment, Escherichia coli, UniProt P10121 47-497, looked up, FtsY, Escherichia coli, residues 47-497, with A335W; number in parentheses is the T. aquaticus number; also called mutant FtsY A335(140)W; Class II mutant; source: expressed and purified as wild-type FtsY (Powers and Walter 1997; Peluso et al. 2001)) ASEQAVEEQPQAHTEAEAETFAADVVEVTEQVAESEKAQPEAEVVAQPEPVVEETPEPVAIEREELPLPEDVNAEAVSPEEWQAEAETVEIVEAAEEEAAKEEITDEELETALAAEAAEEAVMVVPPAEEEQPVEEIAQEQEKPTKEGFFARLKRSLLKTKENLGSGFISLFRGKKIDDDLFEELEEQLLIADVGVETTRKIITNLTEGASRKQLRDAEALYGLLKEEMGEILAKVDEPLNVEGKAPFVILMVGVNGVGKTTTIGKLARQFEQQGKSVMLAAGDTFRAWAVEQLQVWGQRNNIPVIAQHTGADSASVIFDAIQAAKARNIDVLIADTAGRLQNKSHLMEELKKIVRVMKKLDVEAPHEVMLTIDASTGQNAVSQAKLFHEAVGLTGITLTKLDGTAKGGVIFSVADQFGIPIRYIGVGERIEDLRPFKADDFIEALFARED",0.0042,63400,16
